Numbering of substitutions follows the chain as printed.
Legend:
Test in all cases: MST; CD99-Fc labelled with RED-NHS 2nd generation, in PBS/0.005% Tween-20; GDF6 prodomain from transfected 293T cells serially diluted in Opti-MEM; 30 minutes at room temperature; Monolith NT.115
Settings in all cases: one partner purified
[1] = molecular target: T1, GDF6 A249E prodomain (UniProt Q6KF10 23-335, A249E)
T1 construct: signal peptide in the construct; GDF6 prodomain with the Klippel-Feil syndrome mutation A249E; limits as stated for the wild type in the same sentence (residue 1-335); Construct of the microscale thermophoresis; mutation recurrent in Klippel-Feil syndrome patients
T1 sequence (looked up): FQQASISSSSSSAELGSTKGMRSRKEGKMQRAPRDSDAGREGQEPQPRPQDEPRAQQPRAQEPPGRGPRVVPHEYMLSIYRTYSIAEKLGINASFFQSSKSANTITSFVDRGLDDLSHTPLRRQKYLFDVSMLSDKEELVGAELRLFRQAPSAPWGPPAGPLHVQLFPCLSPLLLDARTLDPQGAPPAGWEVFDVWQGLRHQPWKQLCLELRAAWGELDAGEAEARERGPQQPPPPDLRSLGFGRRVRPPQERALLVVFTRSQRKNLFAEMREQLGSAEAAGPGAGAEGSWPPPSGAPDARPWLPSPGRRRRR

[2] = molecular target: T2, GDF6 prodomain (residue 1 - 335) (UniProt Q6KF10 23-335)
T2 construct: signal peptide in the construct; GDF6 (BMP13) prodomain, residue 1-335; Construct of the microscale thermophoresis; no tag and no purification are stated; also called wild-type GDF6 prodomain
T2 sequence (looked up): T1 sequence (looked up) with E227A

[3] = molecular target: T3, GDF6 L289P prodomain (UniProt Q6KF10 23-335, L289P)
T3 construct: signal peptide in the construct; GDF6 prodomain with the Klippel-Feil syndrome mutation L289P; limits as stated for the wild type in the same sentence (residue 1-335); Construct of the microscale thermophoresis; mutation recurrent in Klippel-Feil syndrome patients
T3 sequence (looked up): T1 sequence (looked up) with E227A, L267P

Kd [1]: 3.34 nM | Kd [2]: 17.2 nM | Kd [3]: 2.26 nM
B1: Recombinant human CD99-Fc fusion protein (residue 23 - 122) (Fc fusion, UniProt P14209 23-122, looked up)
chain: DGGFDLSDALPDNENKKPTAIPKKPSAGDDFDLGDAVVDGENDDPRPPNPPKPMPNPNPNHPSSSGSFSDADLADGVSGGEGKGGSDGGGSHRKEGEEAD
modifications: RED-NHS 2nd generation dye, amine reactive (labelled for the microscale thermophoresis only)
notes: The source is stated for the MST; the protein A Sepharose pull-down names the same limits and tag but no source; source: bought: R&D Systems (3968-CD-050); not shown: Fc, C-terminal, kept

Source: publication PMC7688343, “GDF6-CD99 Signaling Regulates Src and Ewing Sarcoma Growth” (Cell reports, 2020)
